# Experiment: label from the status in PepcDB records
# 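Also: failed if final PepcDB status was selected cloned or expressed and not failed if soluble or beyond.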
row,Sequence,protein production
1,MQMLSRIHRETCSQDVNECGMKPRPCQHRCVNTHGSYKCFCLSGHMLMPDATCVNSRTCAMINCQYSCEDTEEGPQCLCPSSGLRLAPNGRDCLDIDECASGKVICPYNRRCVNTFGSYYCKCHIGFELQYISGRYDCIDINECTMDSHTCSHHANCFNTQGSFKCKCKQGYKGNGLRCSAIPENSVKEVLRAPGTIKDRIKKLLAHKNSMKKKAKIKNVTPEPTRTPTPKVNLQPFNYEEIVSRGGNSHGGKKGNEEKMKEGLEDEKREEKALKNDIEERSLRGDVFFPKVNEAGEFGLILVQRKALTSKLEHKDLNISVDCSFNHGICDWKQDREDDFDWNPADRDNAIGFYMAVPALAGHKKDIGRLKLLLPDLQPQSNFCLLFDYRLAGDKVGKLRVFVKNSNNALAWEKTTSEDEKWKTGKIQLYQGTDATKSIIFEAERGKGKTGEIAVDGVLLVSGLCPDSLLSVDD,failed
2,MQMMSELFASGTVVDAVLIFLLVEAIGVIGYWLWRKHGIAPADFLPGMISGALMLLALRAVLAGAGWMVPTLCLLAAGGAHLVDVLRRWR,failed
3,MQMNSEKFFKLFRVGETVLVEYSGTSRAELLLYYIVNNSKLPIVVDDILDTYYEFYTRLKVAGFDVAPLENVQVIKMGGTKDIGRVIGRLNISKYVISEQEYMEIVSQLKDYPVINPVLGLHKLILLGNTFENINVVKMVSNYVGREERIAFYFVNRNVIEKHSSPILDLLEEVVTSILEITDSGIIIKKSIKDEIAGKIVSPLLNF,not failed
4,MQNKARKNYIIYVLMLLLFGGLIYVAIEEGDRFSHHAANTLNTVQDGPFAMFLQFMQDNLHHPLTTLLIQIIAVLLMVRLFGYLFSLIGQPGVIGEIVAGIVLGPSVLGLFFPEAFHFLFPVHSLTNLELLSQVGLILFMFVIGMELDFSVLKNKINETLVISHAGILVPFFLGILSSYWIYETYAADHTPFLPFALFIGISMSITAFPVLARIIQERNMTKTPLGTLAIASAANDDVTAWCLLAVVIAISKAGSFASALYSVGLAVAYIAVMFLVVRPFLKKVGEVYANKEAINKTFVAFILLILIISSCLTEIIGIHALFGAFMAGVVMPSNLGFRKVMMEKVEDISLVFFLPLFFAFTGLRTEIGLINSPELWMVCLLLVTVAIVGKLGGCAIAARLVGESWKDSLTVGTLMNTRGLMELVALNIGYEMGVLPPSIFVILVIMALVTTFMTTPLLHLVERFFVHREEKLSLKRKLIFCFGRPESGRSLLSIYDLLFGKQLKKEHVIAAHYTVGTDLNPLDAQHYESESFALLNQRAVELNIQVDNHYRVTDKLVQEMIHFIRKEHPDMLLLGAGSHYRPEMPGTPGAILWLTLFRDKIDDIMEQVKCPVAVFVNRNYREGALVSFVLGGMIDVFLLSYLNIMLQNGHSVRLFLFETDDEEFHQCIDDLLAHYADQIVVVWFAGVEELVTKERDGLLVMSHLSYTKLSEDELVMRELSSLLVIRRNKNKGEKNERLEIG,failed
5,MQNMKNQVRGSGMDARSNPANVSDGLQNSSGHIGTNTRYRLTKLGEQMARLPIDPKIARILLAAKKHDCMAEILVIASALSIQDPRERPLEARDAAAKAHERFTDKQSDFLTYLNIWDSFQRERDKGLSNKQLVQWCRQYFLSHLRMREWRELHHQLAQTAIEMGLTTKEAAFRRPPEVKQLTSSENAGDQDLSAKLKQKQLDKKQHRTQIRATKEAGYEQIHRALLTGLIANVGMKSPDSNDYTGARGSRFHLFPASALFKAKPKWVMAAELVETTRLYARDVAVIQPEWIEQEAPHLVRYHYFEPHWEQKRGEVVASERVTFYGLTVLPRRPVSYGKVAPEEAREIFIRSALVAQEYDLKADFFVHNKKLIKEITELEHKSRKQDVLVDDEALFAFYHERLPDFYMADSVSEGLCPANPQQTTPSPVGKGWGEGKTVAAQTNFSATAANPLPNPLPQEREQSASVSTVSGSLKTMSCEARLNFCEAKTKTESSLHSQRLSENYTPPFSDGLRPANPQQTTPSPVGEGWGEGKTVAAQTNFSATAANPLPQEREQSASALTVSDDPKPKKQPASQKGRLKPLPLADIRTFEAWLKTAERDNPRLLFLSRDDLMQHAAAHITEEQFPKHWQTADGKFKLSYRFEPHHPLDGVTLTLPLTVLNRISPAALEWLVPGMIREKIQLQIKALPKQIRRICVPVPEFITQFLSQNPDRNAPILPQLAQAIAKTAGDIRILEQINQDEWAAFRLPEHCYFNLRIIDDGEQELAMGRDLIQIQQQLGKAATTTFRDNTQEFERDNVTAWDIGILPESIKFARGKQQLTGYLGLQKEKDGRIALRLFDTSAAAGHAHRLGVIELMKLQLKEQVKDLNKGIQGFTQAAMLLKHINADTLRDDLTQAVCDRAFIGEDKLPRNEKAFKEQIKRARSRLPAVKEALSRYLQETAAAYAELNGKLGKHPLTHLLRLRLQTLLAPGFATRTPWAQWPRLPIYLKAMTLRLEKYSSNPARDAAREADIQELEQMWQEKTDGLAKQGQPVSDGLAAFKWMIEELRVSLFAQELKTPYPVSVKRLLKMWEILL,failed
6,MQNPAGNPYNLDSFWFEQLMSHPSLNHAKMATRIQDETLEREVADLVISTLNLDVSPESVDPEAPLYREGLGLDSIDILEIALVVSKRYGFQLRADNEDNVRIFGSLRSLCQHIAANRVECLEHHHHHH,not failed
7,MQNPIDSLLYVKISAEQAGKIFENLESSIPLPIQLSEPGQKEDFKAENIKPEMILAGMLTVFAYDRENPHITYYRKIFNLLRPDIRKEMTEAAIIKIKNNDFDMAEEILLSLEGLNPDDGITKLNLALLMEERSQFCEMRELFEDALSFNKRAEELYSELILFEPPLPGVFFNAAYFFIKQKNYIKAKSLLKTYLEIENDSSETAEFRKAKASELLKTISEQALDDELFQKAYKCIDLGEEEKAAESIKLFLRKNPKVWNAWFLLGWALRRMGRWEDARSSFLKTIELLENSEISDKEPLCDVYNELAICLMELELFDEAEKHLINALSLDSENIKIISNLGTLALKQGKQEEAEAFFRTVLEINPDDKIALNVLGKPRA,failed
8,MQPETSAQYQHRFSQAIRGGEAADGLPQDRLNVYIRLIRNNIHSFIDRCYTETRQYFDSKEWSRLKEGFVRDARAQTPYFQEIPGEFLQYCQSLPLSDGILALMDFEYTQLLAEVAQIPDIPDIHYSNDSKYTPSPAAFIRQYRYDVTHDLQEAETALLIWRNAEDDVMYQTLDGFDMMLLEIMGSSALSFDTLAQTLVEFMPKADNWKNILLGKWSGWIEQRIIIPSLSAISENMEGNSPSQNHLSA,not failed
9,MQPFRVTLVEDEPSHATLIQYHLNQLGAEVTVHPSGSAFFQHRSQLSTCDLLIVSDQLVDLSIFSLLDIVKEQTKQPSVLILTTGRHELIESSEHNLSYLQKPFAISELRAAIDYHKPSMGVTMNV,not failed
10,MQPGRSKAIPSRNASDKAYEPAVLLMRARVLHQQGQLDEARSAYKKVLKKAPDNFMALHFYALAEYQSGNAELGIKTLKRALLADPKSAQAQSDMGSMLIAVGRFADSLASCDKAIAIDPTLMLAYANRGLALSALARYEDAIASFDKAIELMPDRADTWNDRGNALHKLGRYTEALESYDKAIEIDPLSDVAFMNRAGTYKDLKQLDKALASYDRALSIGKRPVQAGLARAETLLFMRNVKDAMATCTAVLKVEPNSAIALTLLGNCMASLGDAETAIALHSRALELMPNYEAAISSKIFSMDFCAGSDVEAQQAVRSSWWTQIGAPIYRACATPPTNDRDPDRRLVVGYVSADFRAHSAAFSFRPVIEHHDHNQFEVVLYSGVVVPDDSTRAFEAIADKWRDATLMSDQGLADQIKEDKVDILVDLSGHSNGNRLRVFARKPAPVQVTAWGHATGTGLPVMDYLLGDPVAIPVEDRHFYAEAVYDLPSIVIIEPVPQQWRSLELPFDRNGYLTYGSLNRISKISDAAIEVWSQVLAASPTSRLILKDHQIDDPAVRQTLLEKFGARGIAAGRITLLGSSSRQDHLETLKQIDLCLDPFPQAGGVSTWEALHMGVPVVSRLGHTVPSRVGCAVLAAAGLPDFIAPNDARYIEIASKPELERLRSIRRGLRDFILQRCGPAAYTRAVEDAYRTMWKRWCAAPFDEAKDRALRRGR,failed
11,MQPGWMSSRFYQTCDWIWKLAYINLLWLSGTLLGLVVLGFLPATTAMFTVLRKWFTGNPDVAITRTFFQAYKNEFLKINLLGAVLLLGAYILYFNYMYLGTVEGTVHMVLSLGWYAFLILYIITLFYIIPAYVHYNLKLFQYIKTALIIGFVNPLALVTLAISIGLLGYLLYLVPGLIPFFGPSTFALIVMWCANMSFNRVEKKKEKLELAGQN,failed
12,MQQFATLSLASLLMLGTFTAFAAENGDAPASGWHIDDSATKGASGQQGMFDGVRLTEQQRQQMRDLMHQSRQDKPAFNTEDVKAMHKLVTAETFDEAAVRAQITRMMSVQIERQIQMTRVRNQMYNLLTPAQKEILELKHKQRMKEMQQQISMFNQMVAPSSGTTNHTETDSPELEHHHHHH,not failed

# Reference: a protein production outcome set (Wang et al. 2014)
